The assay deals with ubiquitin-methionine-dihydrofolate reductase (mouse) (UniProt P00375).

This is an account of results in US5683904.

As for “Yuh1 ubiquitin-specific protease (from UniProt P35127) (enzyme)”, the deubiquitination in vitro (extract of E. coli expressing Yuh1), share of the fusion deubiquitinated was less than 50%.
